Entries after “also recorded” stand apart in the source; their conditions may differ.
B1: EEE (protein)
chain: MAHAGRTGYDNREIVMKYIHYKLSQRGYEWDAGDVGAAPPGAAPAPGIFSSQPGHTPHPAASRDPVAREEPLQTPAAPGAAAGPALEPVPPVVHLTLRQAGDDFSRRYRRDFAEMSSQLHLTPFTARGRFATVVEELFRDGVNWGRIVAFFEFGGVMCVESVNREMSPLVDNIALWMTEYLNRHLHTWIQDNGGWDAFVELYGPSMRPLFDFSWLSL
modifications: Pacific Blue (maleimide) on the native cysteine 158; left off: His6, C-terminal, state not stated

Assays:
[1] = system: BCL-2 (EEE or WT):BimBH3, BAX-induced MOMP; test: Cytochrome c release assay at varying amount of ABT-199; type: biochemical, mouse
Protocol: (§1) Fig. 2 In vitro assays for evaluating BCL-2 activity. a Cytochrome c release assay with various BCL-2 mutants at varying concentrations. All of the release amounts are normalized to the result caused by the BimBH3-induced BAX activation (lane 3). […] GUVs provide a MOM-like environment devoid of endogenous mitochondrial proteins.
The cytochrome c release assays were performed at varying amounts of ABT-199.
A Dounce homogenizer was used with 20 strokes to homogenize mouse liver tissue (0.2 mg). The mitochondria fraction was separated using centrifugation according to the Mitochondria Isolation Kit (Thermo Scientific). Mitochondria Assay Buffer A (MAB A) (200 mM mannitol, 68 mM sucrose, 10 mM HEPES, 110 mM KCl, 1 mM EDTA, […], 0.1% BSA, protease inhibitor) was used to wash the mitochondria fraction, followed by centrifugation at 12,000 × g. The pellet was collected and resuspended using enough MAB B (i.e., MBA A without 0.1% BSA) and then quantified by bradford assay (Bio-Rad) to yield a final protein content of the mitochondrial fraction ~3 mg/mL. […] Quantification of IB was done using ImageJ software (version 1.49, NIH). The fraction of cytochrome c released (%) is calculated by (I–I0)/(Imax–I0)×100%, where Imax and I0 are the analyzed intensities of cytochrome c with and without activated BAX, respectively. […]

BCL-2-dependent tumors = settings: cited from earlier work
From the text: It is worth noting that the binding groove is also responsible for the engagement of an orally bioavailable small molecule ABT-199 (Venetoclax)[8],[13]. […] ABT-199 can displace the bound pro-apoptotic activator from the groove of BCL-2 efficiently and, consequently, cause the release of pro-apoptotic activators, promoting MOMP and apoptosis. This study will use ABT-199 to examine whether the BCL-2 mutants studied here have the same response as FL-BCL-2 to ABT-199.

[2] = system: BAX-induced MOMP, isolated mitochondria; test: In vitro cytochrome c release assay, isolated mitochondria (BCL-2 mutants); type: biochemical, mouse; settings: for Cytochrome c release, Average: Bax+BimBH3 = 100, mean of n = 6
From the text: To verify this implication, we performed in vitro cytochrome c release assay using isolated mitochondria. […] Lane 3 (Fig. 2a) is a positive control for the cytochrome c release assays. […] (More experimental results in support of the observed BCL-2 activity are given in Supplementary Fig. 3.)
as §1
A Dounce homogenizer was used with 20 strokes to homogenize mouse liver tissue (0.2 mg). The mitochondria fraction was separated using centrifugation according to the Mitochondria Isolation Kit (Thermo Scientific). Mitochondria Assay Buffer A (MAB A) (200 mM mannitol, 68 mM sucrose, 10 mM HEPES, 110 mM KCl, 1 mM EDTA, […], 0.1% BSA, protease inhibitor) was used to wash the mitochondria fraction, followed by centrifugation at 12,000 × g. The pellet was collected and resuspended using enough MAB B (i.e., MBA A without 0.1% BSA) and then quantified by bradford assay (Bio-Rad) to yield a final protein content of the mitochondrial fraction ~3 mg/mL. The final mitochondria fraction was placed on ice for further downstream processing or stored at −80 °C with additional 300 mM trehalose for future use[38]. […] The mixture was then incubated with BAX (0.1 μM) and 10 μL of the mitochondrial fraction ([…]) for 0.5 h at 37 °C. Final volume was adjusted to 30 μL. Following centrifugation at 12,000×g for 10 min, the supernatant was subjected to subsequent immunoblotting (IB). Quantification of IB was done using ImageJ software (version 1.49, NIH). The fraction of cytochrome c released (%) is calculated by (I–I0)/(Imax–I0)×100%, where Imax and I0 are the analyzed intensities of cytochrome c with and without activated BAX, respectively.
Samples were resolved by SDS–PAGE (15%) and electroblotted onto a 0.45 μm PVDF membrane (GE Healthcare). Primary antibodies used in this study included rabbit anti-BAX N20 (Santa Cruz Biotechnology), mouse anti-BCL-2(C2) (Santa Cruz Biotechnology) and mouse anti-cytochrome c antibodies (clone 7H8.2C12, Millipore). Detection was achieved using sheep anti-mouse IgG HRP (GE Healthcare) and donkey anti-rabbit IgG HRP (GE Healthcare) secondary antibodies. Proteins were visualized by 4CN Plus Chromogenic Substrate (PerkinElmer).

apoptotic cell death = settings: phosphomimetic BCL-2; cited from earlier work
From the text: However, the three phosphorylation-related residues are in a 65-residue-long, highly flexible loop domain (denoted by FLD, herein; Fig. 1a) that is often removed for ...

trypsin = test: Limited proteolysis by trypsin; settings: BCL-2 20 μM, trypsin 0.04-9.44 μM, 1 h, room temperature, SDS-PAGE
Protocol: Fig. 3 Structural differences between WT and EEE. a An illustration of mutation sites prepared for spin-labeling ESR studies. b Distance distributions of various double-spin-labeled BCL-2 (WT or EEE) mutants are determined from the experimental DEER data. […] As highlighted, the displacements of α1 and α2 account for the major differences. d An illustration highlighting the positions of α2–α7 and the binding groove. Structures of WT and EEE are colored as in c. Helices α4–α7 change little between the WT and EEE. The displacement of α2 is critical to the change in the local environment of the binding groove. e Limited proteolysis of BCL-2 (20 μM) analyzed on SDS–PAGE. Trypsin concentrations were 0.04, 0.11, 0.34, 1.03, 3.11, 9.44 μM. Incubation time was 1 h at room temperature. It confirms that tertiary conformations of WT versus EEE are indeed different.
BCL-2 conformational change was assessed by limited proteolysis using trypsin (MERCK). In brief, 5 µg BCL-2 (WT or EEE) was digested at enzyme/substrate ratios ranging from 1:2 to 1:461 for 1 h at room temperature. Proteolysis was quenched by adding 1 mM PMSF, and then samples were confirmed by SDS–PAGE with Coomassie blue staining.

[3] = BAX 0.1 µM, BimBH3 2 µM, Fig. 2a

Molecule | effect on cytochrome c release (in words) ([1]; ABT-199 4–30 µM added to pre-incubated BCL-2 (EEE or WT), BimBH3 2 µM, BAX 0.1 µM, mitochondria, Fig. 2b) | displacement of BimBH3 from BCL-2 (in words) ([1]; BCL-2 EEE or WT) | inhibition of tumor growth (in words) (BCL-2-dependent tumors) | inhibition of BAX-induced MOMP / cytochrome c release (in words) [2, 3] | capacity to inhibit BAX-induced MOMP compared with S70E and WT (in words) [2, 3] | Cytochrome c release, Average ([2]; BAX+BimBH3 + 2uM BCL-2 protein) | Cytochrome c release, Average ([2]; BAX+BimBH3 + 4uM BCL-2 protein) | Cytochrome c release, Average ([2]; BAX+BimBH3 + 6uM BCL-2 protein) | protection against apoptotic cell death (in words) (apoptotic cell death) | susceptibility to trypsin proteolysis (in words) (trypsin)
CC1(C)CCC(CN2CCN(c3ccc(C(=O)NS(=O)(=O)c4ccc(NCC5CCOCC5)c([N+](=O)[O-])c4)c(Oc4cnc5[nH]ccc5c4)c3)CC2)=C(c2ccc(Cl)cc2)C1 [ABT-199, Venetoclax, reference compound] | the greater the release of cytochrome c was detected | can displace BimBH3 from BCL-2 (either EEE or WT) | potently inhibits the growth of BCL-2-dependent tumors |  |  |  |  |  |  | 
BAX: full-length mouse BAX; in FRET the single-cysteine variant BAX136C labeled with AL488 [reference compound] |  |  |  | inactive |  |  |  |  |  | 
B1 |  |  |  | largely inhibited | evidently greater than those of S70E (lanes 7–9) and WT (lanes 10–12); also recorded: the most potent in inhibiting the BAX-induced MOMP | 66.3319 | 14.0555 | 8.953 | enhanced to protect cells against apoptotic cell death | relatively resistant

Reference: paper PMC7665024, “Anti-apoptotic BCL-2 regulation by changes in dynamics of its long unstructured loop” (Communications Biology, 2020)
